Assay [1] addresses human type 1 cholecystokinin receptor (CCK1R), CHO-CCK1R cell line (human) (UniProt P32238).
For assay [2], the target named is T1, type 1 cholecystokinin receptor (CCK1R) (Homo sapiens, UniProt P32238).
T1 construct: gene CCKAR; CHO-CCK1R cells and membranes
T1 sequence (P32238 1-428): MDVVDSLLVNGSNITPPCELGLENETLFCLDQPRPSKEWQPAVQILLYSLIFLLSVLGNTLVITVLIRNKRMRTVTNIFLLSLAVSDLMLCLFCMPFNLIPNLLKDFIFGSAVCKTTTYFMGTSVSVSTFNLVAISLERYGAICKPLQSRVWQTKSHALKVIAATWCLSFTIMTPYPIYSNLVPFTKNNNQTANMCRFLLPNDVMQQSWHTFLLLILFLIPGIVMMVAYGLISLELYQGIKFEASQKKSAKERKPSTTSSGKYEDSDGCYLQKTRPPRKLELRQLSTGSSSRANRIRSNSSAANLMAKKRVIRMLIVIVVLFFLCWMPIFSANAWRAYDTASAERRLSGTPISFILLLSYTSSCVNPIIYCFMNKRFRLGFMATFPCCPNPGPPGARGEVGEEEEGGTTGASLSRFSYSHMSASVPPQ
Briefly: fluorescence polarization kinetics (slowed alexa488-CCK off-rate); calcium assay fitted with operational allosteric model. The assay is classed as cell-based. In general terms: Fluorescence polarisation rises when a labelled molecule tumbles more slowly, as on binding a larger partner.

Assay [3] has as its target T2, human type 1 cholecystokinin receptor (CCK1R), CHO-CCK1R cell line (human, UniProt P32238 1-428).
T2 construct: type 1 cholecystokinin receptor, human, wild type; also called human CCK1R; WT CCK1R; source: CHO-K1 cell line stably expressing the receptor (CHO-CCK1R); intact cells and membranes
T2 sequence (looked up): T1 sequence (P32238 1-428)
Briefly: fluorescence polarisation; alexa488-CCK (3.2 nM) added to CHO-CCK1R membranes in KRH buffer, pH 7.4, 0.2% bovine serum albumin; dissociation started with 1 µM unlabeled CCK-8; absence of Compound 1. As to conditions: one partner purified.

Assay [4] concerns the target Cynomolgus monkey CCK1R (Cynomolgus monkey).
The target of assay [5] is T3, rat type 1 CCK receptor (rat), P30551.
T3 chain: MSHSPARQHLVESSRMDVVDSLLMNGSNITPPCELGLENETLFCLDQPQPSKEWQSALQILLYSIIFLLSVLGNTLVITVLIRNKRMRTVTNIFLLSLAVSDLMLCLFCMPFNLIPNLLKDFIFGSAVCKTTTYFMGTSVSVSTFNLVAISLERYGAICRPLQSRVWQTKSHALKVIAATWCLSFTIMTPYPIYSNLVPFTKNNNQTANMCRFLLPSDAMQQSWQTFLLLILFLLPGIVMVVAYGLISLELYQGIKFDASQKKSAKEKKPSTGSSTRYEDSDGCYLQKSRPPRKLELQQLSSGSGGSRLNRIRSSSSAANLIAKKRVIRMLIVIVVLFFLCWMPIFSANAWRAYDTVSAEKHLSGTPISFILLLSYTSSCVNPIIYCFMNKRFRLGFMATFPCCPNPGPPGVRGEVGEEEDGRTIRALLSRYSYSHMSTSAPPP

Assay [6] has as its target Cynomolgus monkey CCK1R (Cynomolgus monkey). Briefly: radioligand binding; radioligand competition-binding assay on intact receptor-expressing cells; radioiodinated D-Tyr-Gly-[(Nle28,31)CCK-26-33] as radioligand, unlabeled CCK as competitor; duplicates, at least three independent experiments.

The text below walks through data of publication PMC8689142, “Discovery of a Positive Allosteric Modulator of Cholecystokinin Action at CCK1R in Normal and Elevated Cholesterol” (Frontiers in Endocrinology, 2021).

Non-standard residues stand in square brackets, D forms with d. No end group written: not given here. Alexa 488 = Alexa Fluor 488 fluorescent dye; Nle = CCCC[C@H](N)C(=O)O

On to Synthetic CCK-58 (peptide), for which, in assay [1], the pEC50 for CCK, peak intracellular calcium response in CHO cells expressing human CCK1R, + 10 µM Compound 1 was 9.9 and the pEC50 for CCK, peak intracellular calcium response in CHO cells expressing human CCK1R, control is 9.1.
In the case of `C=C[C@H]1CN2CC[C@H]1C[C@@H]2CNC(=O)Nc1cccc(C(F)(F)F)c1` [Compound 1, 3-[(1S,2R,4S,5R)-5-ethenyl-1-azabicyclo[2.2.2]octan-2-yl]methyl-1-[3-(trifluoromethyl)phenyl]urea], the Kb in assay [2] is 251 µM.
Usually koff stands for the first-order rate constant of dissociation. By kon is commonly meant a measure of how fast the partners come together. Take {Alexa 488}-[dY]GDY[Nle]GW[Nle]DF (ends and bridges not checked) [alexa^488-D-Tyr-Gly-[(Nle^28,31)CCK-26-33]]: in assay [3], the koff is 0.0217 s⁻¹ and the kon came to 2.33e+06 M⁻¹ s⁻¹.
Broadly, the pKi is the negative decadic logarithm of the Ki, by convention in mol/L. For DYMGWMDF (modifications not checked) [Synthetic CCK-26-33 (CCK-8)], in assay [4], the pEC50 for CCK, peak intracellular calcium response in CHO cells expressing Cynomolgus monkey CCK1R, control turned out to be 11.2. Besides, in assay [5], the pEC50 for CCK, peak intracellular calcium response in CHO cells expressing rat CCK1R, + 10 µM Compound 1 was 11.9. The molecule also yielded a pKi in assay [6] of 8.6.
